The values that follow are results of earlier work, collected in PMC10027511, “Disordered proteins mitigate the temperature dependence of site-specific binding free energies” (The Journal of Biological Chemistry, 2023).

For data set [1], the target named is Sos site 4 peptide site 4 peptide (Drosophila melanogaster) (UniProt P26675). The data set can be described thus: 19F NMR lineshape analysis, 5 °C.
The target is the same in data set [2]. Briefly: 19F NMR lineshape analysis, 25 °C.
Data set [3] shares this target. The data set can be described thus: 19F NMR lineshape analysis, 15 °C.
For data set [4] the target is unchanged. Briefly: 19F NMR lineshape analysis, 35 °C.
The target is the same in data set [5]. The data set can be described thus: 19F NMR lineshape analysis, 45 °C.

As usually defined, the Kd is the constant that tells how readily two partners part at equilibrium. As for “Drk N-terminal SH3 domain N-terminal SH3 (from UniProt Q08012)”, the Kd is 20 µM in data set [1]; 60 µM in data set [2]; 40 µM in data set [3]; 110 µM in data set [4]; 210 µM in data set [5].
